Test results taken from publication PMC9098913, “In vitro reconstitution of Escherichia coli divisome activation” (Nature Communications, 2022).

System: FtsA self-interaction
Test: FRET self-interaction of His-tagged FtsAs (and His-SUMO control) on Tris-NTA membranes
Assay type: binding, E. coli
Protocol: To study colocalization of His-tagged variants of FtsA, 0.5–1 µM of Cy5 labelled His-tagged FtsAs were added to the chamber, incubated for 20 min and washed 6x with reaction buffer. […] To control the density of membrane-bound FtsA, SUVs without and with Tris-NTA lipids were mixed to obtain the respective Tris-NTA concentrations. To perform FRET/FRAP experiments, equimolar concentrations of Cy3 and Cy5 labelled His-tagged FtsAs (total 0.5–1 µM) or His-SUMO-Cys were added to a chamber and treated as above. […] FRAP experiments were performed as described before.
Bleaching the acceptor dye leads to an increase in the donor intensity, which can be used to quantify the Foerster Resonance energy transfer (FRET)[48]. FRET efficiency was quantified with E%=Ipost/Ipost+Ipre⋅100 , where Ipost is the intensity of the […] and Ipre is the […]. […] To extract the contribution of both processes, we adjusted a routine recently published by Gerganova et al.[33]. In short, the code provides the contribution of both modes of recovery by analysing the shape of the fluorescence recovery profile. […] Contribution of diffusion leads to a change of the slope of the outer borders of the bleached region (S4h right). Thus, by measuring the change of the slope of the border recovery, diffusion and simple on/off binding can be distinguished. We developed “FRAPdiff”, a graphical user interface, which uses the original fit routine by David Rutkowski. It can be used directly on.tiff movies with annotated bleach regions as ImageJ ROIs. In addition, we added optional bleach correction, user selectable projection axis (x or y), and optional mirroring of the recovery profiles, if bleaching was not symmetric. The original fit routine for estimating the recovery and diffusion dynamics can be found at https://github.com/davidmrutkowski/1DReflectingDiffusion. FRAPdiff is available at 10.5281/zenodo.6400639[49] under the GPLv3 open-source license.

B1: FtsA R286W-His6: FtsA R286W (1-405) with amphipathic helix replaced by C-terminal His-tag (protein)
chain: MIKATDRKLVVGLEIGTAKVAALVGEVLPDGMVNIIGVGSCPSRGMDKGGVNDLESVVKCVQRAIDQAELMADCQISSVYLALSGKHISCQNEIGMVPISEEEVTQEDVENVVHTAKSVRVRDEHRVLHVIPQEYAIDYQEGIKNPVGLSGVRMQAKVHLITCHNDMAKNIVKAVERCGLKVDQLIFAGLASSYSVLTEDERELGVCVVDIGGGTMDIAVYTGGALRHTKVIPYAGNVVTSDIAYAFGTPPSDAEAIKVRHGCALGSIVGKDESVEVPSVGGRPPWSLQRQTLAEVIEPRYTELLNLVNEEILQLQEKLRQQGVKHHLAAGIVLTGGAAQIEGLAACAQRVFHTQVRIGAPLNITGLTDYAQEPYYSTAVGLLHYGKESHLNGEAEVEKRVTASV
modifications: Cy3 or Cy5 at the N-terminus in the labelled form (sortagging as for native FtsA); left off: TwinStrep-SUMO, N-terminal, cleaved | 5xGlycine tag, N-terminal, kept | His6, C-terminal, kept
FRET efficiency (0.1% Tris NTA, + FtsZ; Exp1): 0.51%
FRET efficiency (0.1% Tris NTA, + FtsZ; Exp2): 0.32%
FRET efficiency (0.1% Tris NTA, + FtsZ; mean, n = 2): 0.42%
FRET efficiency (0.1% Tris NTA, without FtsZ; Exp1): 0.42%
FRET efficiency (0.1% Tris NTA, without FtsZ; Exp2): 0.20%
FRET efficiency (0.1% Tris NTA, without FtsZ; mean, n = 2): 0.31%
FRET efficiency (0.4% Tris NTA; + FtsZ; Exp1): 4.18%
FRET efficiency (0.4% Tris NTA; + FtsZ; Exp2): 2.69%
FRET efficiency (0.4% Tris NTA; + FtsZ; Mean, n = 2): 3.43%
FRET efficiency (0.4% Tris NTA; without FtsZ; Exp1): 3.62%
FRET efficiency (0.4% Tris NTA; without FtsZ; Exp2): 3.61%
FRET efficiency (0.4% Tris NTA; without FtsZ; Mean, n = 2): 3.62%
FRET efficiency (0.6% Tris NTA; + FtsZ; Exp1): 3.82%
FRET efficiency (0.6% Tris NTA; + FtsZ; Exp2): 8.42%
FRET efficiency (0.6% Tris NTA; + FtsZ; Exp3): 3.49%
FRET efficiency (0.6% Tris NTA; + FtsZ; Mean, n = 3): 5.24%
FRET efficiency (0.6% Tris NTA; without FtsZ; Exp1): 2.27%
FRET efficiency (0.6% Tris NTA; without FtsZ; Exp2): 7.55%
FRET efficiency (0.6% Tris NTA; without FtsZ; Exp3): 3.60%
FRET efficiency (0.6% Tris NTA; without FtsZ; Mean, n = 3 (His6-SUMO n = 2)): 4.47%
FRET efficiency (0.8% Tris NTA; + FtsZ; Exp1): 12.66%
FRET efficiency (0.8% Tris NTA; + FtsZ; Exp2): 13.96%
FRET efficiency (0.8% Tris NTA; + FtsZ; Exp3): 6.95%
FRET efficiency (0.8% Tris NTA; + FtsZ; Mean, n = 3): 11.19%
FRET efficiency (0.8% Tris NTA; without FtsZ; Exp1): 11.90%
FRET efficiency (0.8% Tris NTA; without FtsZ; Exp2): 13.18%
FRET efficiency (0.8% Tris NTA; without FtsZ; Exp3): 7.63%
FRET efficiency (0.8% Tris NTA; without FtsZ; Mean, n = 3 (His6-SUMO n = 2)): 10.90%
FRET efficiency (1% Tris NTA; + FtsZ; Exp1): 18.63%
FRET efficiency (1% Tris NTA; + FtsZ; Exp2): 11.68%
FRET efficiency (1% Tris NTA; + FtsZ; Exp3): 16.69%
FRET efficiency (1% Tris NTA; + FtsZ; Exp4): 5.28%
FRET efficiency (1% Tris NTA; + FtsZ; Mean, n = 3 (R286W-His6 n = 4)): 13.07%
FRET efficiency (1% Tris NTA; without FtsZ; Exp1): 13.30%
FRET efficiency (1% Tris NTA; without FtsZ; Exp2): 11.28%
FRET efficiency (1% Tris NTA; without FtsZ; Exp3): 16.33%
FRET efficiency (1% Tris NTA; without FtsZ; Exp4): 5.94%
FRET efficiency (1% Tris NTA; without FtsZ; Mean, n = 3 (R286W-His6 n = 4)): 11.71%
FRET efficiency (2% Tris NTA; + FtsZ; Exp1): 13.95%
FRET efficiency (2% Tris NTA; + FtsZ; Exp2): 11.07%
FRET efficiency (2% Tris NTA; + FtsZ; Mean, n = 2): 12.51%
FRET efficiency (2% Tris NTA; without FtsZ; Exp1): 11.54%
FRET efficiency (2% Tris NTA; without FtsZ; Exp2): 10.61%
FRET efficiency (2% Tris NTA; without FtsZ; Mean, n = 2): 11.08%
FRET efficiency (Tris 0.40 %, + FtsZ; mean): 3.43%
FRET efficiency (Tris 0.40 %, without FtsZ; mean): 3.61%
FRET efficiency (Tris 0.60 %, + FtsZ; mean): 5.24%
FRET efficiency (Tris 0.60 %, without FtsZ; mean): 4.47%
FRET efficiency (Tris 0.80 %, + FtsZ; mean): 11.19%
FRET efficiency (Tris 0.80 %, without FtsZ; mean): 10.90%
FRET efficiency (Tris 1.00 %, + FtsZ; mean): 13.07%
FRET efficiency (Tris 1.00 %, without FtsZ; mean): 11.71%
FRET efficiency (Tris 2.00 %, + FtsZ; mean): 12.51%
FRET efficiency (Tris 2.00 %, without FtsZ; mean): 11.08%
FRET efficiency ([…] Tris NTA, + FtsZ; Exp1): 3.67%
FRET efficiency ([…] Tris NTA, + FtsZ; Exp2): 2.76%
FRET efficiency ([…] Tris NTA, + FtsZ; mean, n = 2): 3.22%
FRET efficiency ([…] Tris NTA, without FtsZ; Exp1): 3.93%
FRET efficiency ([…] Tris NTA, without FtsZ; Exp2): 1.52%
FRET efficiency ([…] Tris NTA, without FtsZ; mean, n = 2): 2.73%
FRET efficiency ([…] Tris NTA; + FtsZ; Exp1): 8.55%
FRET efficiency ([…] Tris NTA; + FtsZ; Exp2): 12.05%
FRET efficiency ([…] Tris NTA; + FtsZ; Exp3): 9.96%
FRET efficiency ([…] Tris NTA; + FtsZ; Mean, n = 3): 10.19%
FRET efficiency ([…] Tris NTA; without FtsZ; Exp1): 9.50%
FRET efficiency ([…] Tris NTA; without FtsZ; Exp2): 13.25%
FRET efficiency ([…] Tris NTA; without FtsZ; Exp3): 7.80%
FRET efficiency ([…] Tris NTA; without FtsZ; Mean, n = 3): 10.18%
FRET increase with FtsNcyto-His ([…] Tris-NTA): more than twofold
FRET efficiency ([…] Tris-NTA; + N (FtsNcyto); mean): 18.47%
FRET efficiency ([…] Tris-NTA; + N/Z (FtsNcyto and FtsZ); mean): 17.73%
FRET efficiency ([…] Tris-NTA; + N/Z; Exp. 1): 21.67%
FRET efficiency ([…] Tris-NTA; + N/Z; Exp. 2): 17.33%
FRET efficiency ([…] Tris-NTA; + N/Z; Exp. 3): 14.20%
FRET efficiency ([…] Tris-NTA; + N; Exp. 1): 22.02%
FRET efficiency ([…] Tris-NTA; + N; Exp. 2): 17.07%
FRET efficiency ([…] Tris-NTA; + N; Exp. 3): 16.35%
FRET efficiency ([…] Tris-NTA; + Z (FtsZ); mean): 8.99%
FRET efficiency ([…] Tris-NTA; + Z; Exp. 1): 5.42%
FRET efficiency ([…] Tris-NTA; + Z; Exp. 2): 8.55%
FRET efficiency ([…] Tris-NTA; + Z; Exp. 3): 12.05%
FRET efficiency ([…] Tris-NTA; + Z; Exp. 4): 9.96%
FRET efficiency ([…] Tris-NTA; alone; Exp. 1): 4.90%
FRET efficiency ([…] Tris-NTA; alone; Exp. 2): 9.50%
FRET efficiency ([…] Tris-NTA; alone; Exp. 3): 13.25%
FRET efficiency ([…] Tris-NTA; alone; Exp. 4): 7.80%
FRET efficiency ([…] Tris-NTA; alone; mean): 8.86%
FRET efficiency (with FtsNcyto attached to the membrane; mean ± s.d.; p-value 0.03): 17.73 ± 3.06%
